Laboratory results as given in paper PMC2860808 (Biochemical Journal, 2010).
Where a chain is given by its changes, count along the chain named. Names may count otherwise.

T1: SPP–myc (signal peptide peptidase, myc-tagged) (human), Q8TCT9
T1 chain: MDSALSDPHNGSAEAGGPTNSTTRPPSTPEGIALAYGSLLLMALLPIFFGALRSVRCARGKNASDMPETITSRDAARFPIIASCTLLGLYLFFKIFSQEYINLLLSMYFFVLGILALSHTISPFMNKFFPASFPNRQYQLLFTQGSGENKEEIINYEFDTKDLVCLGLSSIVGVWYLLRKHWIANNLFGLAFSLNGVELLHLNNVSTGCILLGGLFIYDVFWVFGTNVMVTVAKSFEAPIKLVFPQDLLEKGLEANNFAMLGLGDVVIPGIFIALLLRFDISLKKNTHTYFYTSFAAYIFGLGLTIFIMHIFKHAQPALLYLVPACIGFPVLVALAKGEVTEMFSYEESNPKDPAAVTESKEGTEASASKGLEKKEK

B1: SPP–myc (signal peptide peptidase, myc-tagged), Q8TCT9 1-377 (enzyme)
chain: T1 chain
B2: SPP^D/A–myc (SPP-D265A, catalytically inactive, myc-tagged) (enzyme)
chain: T1 chain with D265A

Assays:
[1] = target: T1, SPP–myc (signal peptide peptidase, …); assay: SDS/PAGE; conditions: remark: other sources report otherwise
native gel or EMSA = target: the molecule itself; assay: native gel or EMSA

| Binder | stoichiometry N [1] | stoichiometry N (native gel or EMSA) |
| --- | --- | --- |
| B1 | 2 | – |
| B2 | – | 2 |
